For assay [1], the target named is T1, FGFR4 expressed on the surface of RMS cells (Rh4-FR4 wt, Rh30) (human, UniProt P22455 22-802).
T1 construct: Endogenous FGFR4 of the rhabdomyosarcoma cell lines; The whole entry includes the signal peptide; also called cell-surface FGFR4; Rh4-FR4 wt cells
In words: flow cytometry of DiR fluorescence, liposomes at 0.5 mM lipid on Rh4-FR4 wt cells; reference L-mCh. Here is the method: (§1) Samples were analyzed after two washes by flow cytometry on a MACSQuant® cytometer (Miltenyi) and results were analyzed with FlowJo™ software (BD Biosciences, France). Phages displaying anti-mCherry nanobodies were used as negative control²⁴ and as positive control we used an anti-FGFR4 antibody (BT53, kindly provided by J. Khan lab, NCI, Bethesda, MD). For binding test of recombinant nanobodies, cells were detached with Accutase® (Stemcell Technologies) and washed with PBS. All following steps were performed on ice: 4×10⁵ cells were incubated with nanobody concentrations of 30 μg/ml for 1 h, washed once with PBS and incubated for an additional 30 min with anti His-tag FITC labeled antibody (LS-C57341, LSBioscience, diluted 1:10). The cells were washed once more with PBS and analyzed. Targeting liposomes were added at 0.5 mM final lipid concentration to cells in 96-well plates and incubated for 2 h at 37° C. and 5% CO₂. The cells were washed twice with PBS and detached with Accutase®.
(§2) We next wanted to test if nanobodies on the liposomal surface can still bind to FGFR4 expressing RMS cells. Rh4-FR4 wt and Rh4-FR4ko cells were incubated for 2 h with FGFR4-targeted liposomes or mCherry-targeted control liposomes under normal cell culture conditions. DiR fluorescence was subsequently analyzed by flow cytometry (FIG. 5).
(Flow cytometry measures light scatter and fluorescence of single cells or particles in a stream.)

Assay [2] addresses T1, FGFR4 expressed on the surface of RMS …. In words: flow cytometry of DiR fluorescence, liposomes at 0.5 mM lipid on Rh4-FR4 wt cells, 2 h at 37 °C. Here is the method: as §1, with “Binding validation of selected phages, recombinant nanobodies and decorated liposomes was performed on Rh4-FR4 wt and Rh4-FR4ko cells. Specificity of selected phage clones binding to FGFR4 was determined by flow cytometry in 96-well plates (Becton Dickinson). Cell surface staining of Rh4-FR4 wt or Rh4-FR4ko cells was performed on ice in PBS supplemented with 1% FBS. 80 μL phages+20 μL PBS/1% milk were incubated on 1×10⁵ cells for 1 h on ice. […] Samples” for “Samples”
as §2

T1 sequence (P22455 22-802 limits assumed): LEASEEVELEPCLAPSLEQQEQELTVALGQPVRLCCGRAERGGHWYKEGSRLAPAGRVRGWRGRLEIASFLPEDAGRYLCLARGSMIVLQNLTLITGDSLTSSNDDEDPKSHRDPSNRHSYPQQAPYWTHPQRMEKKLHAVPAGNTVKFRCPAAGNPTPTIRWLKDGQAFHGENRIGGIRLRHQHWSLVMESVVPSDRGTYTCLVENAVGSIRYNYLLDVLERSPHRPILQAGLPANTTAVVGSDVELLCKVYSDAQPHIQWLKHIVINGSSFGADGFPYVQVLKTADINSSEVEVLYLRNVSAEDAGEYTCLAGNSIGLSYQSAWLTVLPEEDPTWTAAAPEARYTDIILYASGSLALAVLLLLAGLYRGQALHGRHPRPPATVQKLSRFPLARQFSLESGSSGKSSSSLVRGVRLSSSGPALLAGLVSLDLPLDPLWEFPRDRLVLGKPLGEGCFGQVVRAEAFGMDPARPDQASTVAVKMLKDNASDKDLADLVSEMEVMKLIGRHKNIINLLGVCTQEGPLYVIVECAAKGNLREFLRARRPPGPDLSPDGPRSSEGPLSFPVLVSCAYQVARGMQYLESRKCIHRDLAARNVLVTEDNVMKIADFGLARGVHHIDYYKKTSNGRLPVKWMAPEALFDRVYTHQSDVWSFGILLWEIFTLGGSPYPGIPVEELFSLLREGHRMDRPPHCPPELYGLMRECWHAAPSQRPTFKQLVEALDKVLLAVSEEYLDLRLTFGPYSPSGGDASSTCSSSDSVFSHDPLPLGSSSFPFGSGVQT

B1: L-B5, VCR-loaded fluorescent liposomes decorated with nanobody B5 (other)
VHH: EVQLQASGGGFVQPGGSLRLSCAASGRTSWLTTMGWFRQAPGKEREFVSAISSFSSKQGYYADSVKGRFTISRDNSKNTVYLQMNSLRAEDTATYYCAYASYPRHQGNGRWKDFVEYWGQGTQVTVSS
modifications: C-terminal cysteine coupled to DSPE-PEG-maleimide on the liposomal surface
notes: Liposome as for L-A8; also called FGFR4-targeted liposomes; not shown: C-terminal Myc/6xHis-tag and an additional cysteine
For B1, the “fold increase of MFI over L-mCh” value in assay [1] is 34 fold. For the same molecule, in assay [2], the MFI was found to be 1700 MFI.

B2: L-B1, VCR-loaded fluorescent liposomes decorated with nanobody B1 (other)
VHH: EVQLQASGGGFVQPGGSLRLSCAASGYTSRSSAMGWFRQAPGKEREFVSAISDLTGYPYYYADSVKGRFTISRDNSKNTVYLQMNSLRAEDTATYYCAAYQDDKWTYGSQHGKYWGQGTQVTVSS
modifications: C-terminal cysteine coupled to DSPE-PEG-maleimide on the liposomal surface
notes: as for B1
Take B2: the “fold increase of MFI over L-mCh” value in assay [1] was found to be 12 fold. In assay [2], this molecule showed an MFI of 600 MFI.

B3: L-F8, VCR-loaded fluorescent liposomes decorated with nanobody F8 (other)
VHH: EVQLVESGGGLVQPGGSLRLSCAASGTGYALDDMGWVRQAPGKGLEWVSAISDDESMADYYADSVKGRFTISRDNSKNTVYLQMNSLRAEDTAVYYCASYKEYKYQSGHHYFAYRGQGTLVTVSS
modifications: C-terminal cysteine coupled to DSPE-PEG-maleimide on the liposomal surface
notes: as for B1
B3: in assay [1], the “fold increase of MFI over L-mCh” value is 28 fold. Moreover, the MFI in assay [2] was 1400 MFI.

B4: L-A8, VCR-loaded fluorescent liposomes decorated with nanobody A8 (other)
VHH: EVQLQASGGGFVQPGGSLRLSCAASGRTYSRDTMGWFRQAPGKEREFVSAISSRHSHTTYYADSVKGRFTISRDNSKNTVYLQMNSLRAEDTATYYCAEWDVFDMHYALPPMWYWGQGTQVTVSS
modifications: C-terminal cysteine coupled to DSPE-PEG-maleimide on the liposomal surface
notes: Liposome of egg sphingomyelin, cholesterol, PEG-ceramide, DSPE-PEG-maleimide and DiR, loaded with vincristine; also called FGFR4-targeted liposomes; not shown: C-terminal Myc/6xHis-tag and an additional cysteine
As for B4, the “fold increase of MFI over L-mCh” value in assay [1] worked out at 6 fold. Moreover, the MFI in assay [2] is 300 MFI.
